Assay results as given in patent publication US10676765B2, “Methods for producing 3-hydroxy-3-methylbutyric acid” (Global Bioenergies, priority 2015, dated 2020).

Key:
[1] = Conversion of 3-methylcrotonyl-CoA and ADP into 3-methylcrotonic acid and ATP, phosphate butyryltransferase from Enterococcus faecalis with butyrate kinases; type: biochemical; conditions: 4 mM 3-methylcrotonyl-CoA, 4 mM ADP, 0.2 mg/ml each enzyme, 20 min, 30° C.
Experimental: (§1) The enzymatic assays were conducted in a total reaction volume of 0.2 ml.
(§2) The standard reaction mixture contained:
(§3) 50 mM potassium phosphate buffer pH 7.5
4 mM 3-methylcrotonyl-CoA
(§4) 0.2 mg/ml of purified phosphate butyryltransferase from Enterococcus faecalis
(§5) 0.2 mg/ml of purified butyrate kinase from Lactobacillus casei or Geobacillus sp.
A series of controls was performed in parallel (Assays C-H Table 10).
Assays were then incubated for 20 min with shaking at 30° C.
(§6) After an incubation period, the reactions were stopped by heating the reaction medium 4 min at 90° C. The samples were centrifuged, filtered through a 0.22 μm filter and the clarified supernatants were transferred into a clean vial for further analysis. The consumption of ADP and 3-methylcrotonyl-CoA and the formation of ATP and 3-methylcrotonic acid and free coenzyme A (CoA-SH) were followed by HPLC analysis according to the methods described in Example 10 and Example 12.

[2] = Conversion of 3-hydroxyisovaleryl-CoA and ADP into 3-hydroxyisovaleric acid and ATP, phosphate butyryltransferase from Enterococcus faecalis with butyrate kinases; type: biochemical; conditions: 4 mM 3-hydroxyisovaleryl-CoA, 4 mM ADP, 0.2 mg/ml each enzyme, 20 min, 30° C.
Experimental: as §1, §2, §3
4 mM 3-hydroxyisovaleryl-CoA
as §4, §5
A series of controls were performed in parallel (Assays C-H Table 5).
The assays were then incubated for 20 min with shaking at 30° C.
as §6, with “3-hydroxyisovaleryl-CoA,” for “3-methylcrotonyl-CoA”, “3-hydroxyisovaleric” for “3-methylcrotonic”, “10.” for “10 and Example 12.”

B1: phosphate butyryltransferase from Enterococcus faecalis: phosphate butyryltransferase (EC 2.3.1.19) from Enterococcus faecalis MTUP9, Uniprot A0A038BNC2 (protein, listed as Enterococcus faecalis)
chain: MITVSIAGGSQPEILQLVKKALKEAEQPLQFIVFDTNENLDTENLWKYVHCSDEATVAQEAVSLVATGQAQILLKGIIQTHTLLKEMLKSEHQLKNKPILSHVAMVELPAGKTFLLTDCAMNIAPTQATLIEIVENAKEVAQKLGLHHPKIALLSAAENFNPKMPSSVLAKEVTAHFNGQQEATVFGPLSLDLATSEEAVAHKRYSGPIMGDADILVVPTIDVGNCLYKSLTLFGHAKVGGTIVGTKVPVVLTSRSDSTESKFHSLRFAMRQV
modifications: MTUP9
notes: phosphate butyryltransferase (EC 2.3.1.19) from Enterococcus faecalis MTUP9, Uniprot A0A038BNC2
- production of 3-methylcrotonic acid and ATP [1]: significant production of 3-methylcrotonic acid without simultaneous generation of ATP
- production of 3-hydroxyisovaleric acid and ATP [2]: significant production of 3-hydroxyisovaleric acid, without simultaneous generation of ATP
